# Data taken from patent publication US20220332804A1 (CSL INNOVATION, published 2022).
# Positions count from the first letter of the chain named.
# T1: human C2 Y702A (human, UniProt P06681 21-752)
# T1 sequence: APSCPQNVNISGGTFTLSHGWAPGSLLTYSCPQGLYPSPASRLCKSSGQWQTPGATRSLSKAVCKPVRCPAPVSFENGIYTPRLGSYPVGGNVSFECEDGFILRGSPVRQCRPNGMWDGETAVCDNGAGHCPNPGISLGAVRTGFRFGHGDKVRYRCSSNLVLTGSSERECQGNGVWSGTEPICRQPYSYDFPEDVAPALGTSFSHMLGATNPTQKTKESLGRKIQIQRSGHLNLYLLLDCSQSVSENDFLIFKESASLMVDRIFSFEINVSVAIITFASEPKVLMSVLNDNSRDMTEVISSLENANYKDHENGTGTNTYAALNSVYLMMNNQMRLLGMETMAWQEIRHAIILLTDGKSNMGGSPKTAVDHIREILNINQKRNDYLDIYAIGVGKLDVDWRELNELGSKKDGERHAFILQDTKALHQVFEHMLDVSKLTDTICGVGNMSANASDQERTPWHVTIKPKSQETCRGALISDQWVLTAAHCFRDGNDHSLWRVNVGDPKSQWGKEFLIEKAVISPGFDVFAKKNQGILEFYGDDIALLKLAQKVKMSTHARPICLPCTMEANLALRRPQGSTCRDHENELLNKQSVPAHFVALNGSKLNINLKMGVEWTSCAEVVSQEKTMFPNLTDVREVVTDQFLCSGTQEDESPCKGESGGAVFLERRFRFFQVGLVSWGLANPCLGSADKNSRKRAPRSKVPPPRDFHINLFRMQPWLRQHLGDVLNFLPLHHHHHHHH
# T2: human C2 D269A (human, UniProt P06681 21-752)
# T2 sequence: T1 sequence with D249A, A682Y
# T3: human C2 K244A (human, UniProt P06681 21-752)
# T3 sequence: T1 sequence with K224A, A682Y
# T4: human C2 G427A (human, UniProt P06681 21-752)
# T4 sequence: T1 sequence with G407A, A682Y
# B1: RF16-226 (antibody, human IgG4 S228P, lambda)
# heavy: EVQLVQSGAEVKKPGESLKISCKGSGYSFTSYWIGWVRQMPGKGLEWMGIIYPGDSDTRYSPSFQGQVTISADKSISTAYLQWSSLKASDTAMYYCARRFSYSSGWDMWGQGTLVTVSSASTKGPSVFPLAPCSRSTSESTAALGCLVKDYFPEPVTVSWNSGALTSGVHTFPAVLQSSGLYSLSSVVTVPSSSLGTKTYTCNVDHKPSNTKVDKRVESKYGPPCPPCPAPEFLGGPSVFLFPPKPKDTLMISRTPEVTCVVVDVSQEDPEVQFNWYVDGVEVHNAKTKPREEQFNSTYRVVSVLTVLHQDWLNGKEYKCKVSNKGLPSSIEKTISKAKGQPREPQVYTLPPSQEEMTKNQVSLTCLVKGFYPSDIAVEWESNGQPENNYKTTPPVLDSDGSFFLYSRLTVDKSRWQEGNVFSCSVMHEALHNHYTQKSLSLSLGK
# light: SYELTQPPSVSVSPGQTARITCSGDALTSKYVAWYQQKSGLAPLLVIYEDTRRPSGIPAKFSGSSSGSVATLTISGAHGDDEADYYCYSTDASGHQRVFGGGTKLTVLSQPKAAPSVTLFPPSSEELQANKATLVCLISDFYPGAVTVAWKADGSPVKAGVETTKPSKQSNNKYAASSYLSLTPEQWKSHRSYSCQVTHEGSTVEKTVAPTECS
# notes: pH-dependent anti-C2 antibody from a phage display library; also called WT
# What was measured:
# Experiment in all cases: SPR, KD relative to WT C2;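 note: biacore SPR at 37 °C, anti-C2 mAbs captured via immobilised goat anti-human IgG, C2 alanine or serine surface mutants as analytes, 1:1 model fitted, double-referenced sensograms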
# human C2 Y702A = biological target: T1, human C2 Y702A
# human C2 D269A = biological target: T2, human C2 D269A
# human C2 K244A = biological target: T3, human C2 K244A
# human C2 G427A = biological target: T4, human C2 G427A
binder,measurement,setting,value
B1,Fold diff,human C2 Y702A,11 fold
same,Fold diff,human C2 D269A,1 fold
same,Fold diff,human C2 K244A,2 fold
same,Fold diff,human C2 G427A,0 fold
